Experiment [1] addresses HLA-DQ2.5 on IHW09023 cells loaded with 33mer gliadin peptide (human; wheat). In words: cell-based or functional assay.
Experiment [2] concerns the target HLA-DQ2.5 on IHW09023 cells loaded with gamma 2 gliadin peptide (human; wheat). In words: cell-based or functional assay.
Experiment [3] concerns the target HLA-DQ2.5 on IHW09023 cells loaded with omega1/2 gliadin peptide (human; wheat). The experiment is described as follows: cell-based or functional assay.
Experiment [4] has as its target HLA-DQ2.5 on IHW09023 cells loaded with gamma 4a gliadin peptide (human; wheat). The experiment is described as follows: cell-based or functional assay.
Experiment [5] concerns the target HLA-DQ2.5 on IHW09023 cells loaded with gamma 4d gliadin peptide (human; wheat). The experiment is described as follows: cell-based or functional assay.
Experiment [6] addresses HLA-DQ2.5 on IHW09023 cells loaded with gamma 1 gliadin peptide (human; wheat). In words: cell-based or functional assay.
The target in experiment [7] is HLA-DQ2.5 on IHW09023 cells loaded with BC hordein peptide (human; barley). The experiment is described as follows: cell-based or functional assay.
Experiment [8] concerns the target HLA-DQ2.5 on IHW09023 cells loaded with gamma 3 gliadin peptide (human; wheat). The experiment is described as follows: cell-based or functional assay.
A further experiment addresses T1, HLA-DP on Ba/F3 cells (human, UniProt P20036 29-222; P04440 30-225, limits assumed).
T1 construct: whole, on cells; also called Ba/F3-HLA-DP
In words: FACS, Ba/F3 cells; raw MFI.

In another experiment the target is T2, HLA-DQ6.3 on Ba/F3 cells (human, UniProt P01920 33-230, limits assumed).
T2 construct: whole, on cells; also called Ba/F3-HLA-DQ6.3
T2 MHC II alpha: not shown
T2 MHC II beta: not shown
In words: FACS, Ba/F3 cells; raw MFI.

The target of the next experiment is T3, HLA-DQ5.1 on Ba/F3 cells (human, limits assumed).
T3 construct: whole, on cells; also called Ba/F3-HLA-DQ5.1
T3 MHC II alpha: not shown
T3 MHC II beta: not shown
In words: FACS, Ba/F3 cells; raw MFI.

T1 sequence (P20036 29-222 limits assumed, chain 1 of 4, other chains not shown): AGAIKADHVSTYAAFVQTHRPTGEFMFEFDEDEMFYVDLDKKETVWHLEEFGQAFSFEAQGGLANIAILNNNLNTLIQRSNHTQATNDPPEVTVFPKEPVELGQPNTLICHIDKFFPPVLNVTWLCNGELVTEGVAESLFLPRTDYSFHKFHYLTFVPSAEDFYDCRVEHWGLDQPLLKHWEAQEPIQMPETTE
T1 sequence (P04440 30-225 limits assumed, chain 2 of 4, other chains not shown): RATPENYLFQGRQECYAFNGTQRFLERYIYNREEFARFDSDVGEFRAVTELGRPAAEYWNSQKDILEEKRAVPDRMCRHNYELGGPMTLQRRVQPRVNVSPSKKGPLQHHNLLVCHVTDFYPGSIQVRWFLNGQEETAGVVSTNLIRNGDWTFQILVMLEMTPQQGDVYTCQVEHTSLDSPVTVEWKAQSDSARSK

B1: DQN0344H1013/L0620//DQN0385H1270/L0681-F6 (bispecific antibody)
heavy 1: QVQLVESGGGVVQPGRSLRLSCAASGFTFSSAYWMVWVRQAPGQGLEWMGAVYGGSDTTYYAKWTEGRFTISRDTSKNTLYLQMNSLRAEDTAVYYCAREPLNYYYYGELNVWGQGTLVTVSSASTKGPSVFPLAPSSKSTSGGTAALGCLVKDYFPEPVTVSWNSGALTSGVHTFPAVLKSSGLYSLSSVVTVPSSSLGTQTYICNVNHKPSNTKVDKRVEPKSCDKTHTCPPCPAPELRRGPSVFLFPPKPKDTLMISRTPEVTCVVVDVSHEDPEVKFNWYVDGVEVHNAKTKPREEQYNSTYRVVSVLTVLHQDWLNGKEYKCKVSNKALPAPIEKTISKAKGQPREPQVYTLPPSREEMTKNQVSLTCLVKGFYPSDIAVEWESNGQPENNYKTTPPYLDSDGSFFLYSKLTVDKSRWQEGNVFSCSVLHEALHAHYTREELSLSP
light 1: DIQMTQSPSSLSASVGDRVTITCQATENIYSGLAWYQQKPGKAPKLLIYYVSTLAYGIPARFSGSGSGTDFTLTISSLEPEDFAVYYCQTYEDVSAVTFGQGTKVEIKRTVAAPSVFIFPPSDEQLKSGTAEVVCLLNNFYPREAKVQWKVDNALQSGNSEESVTEQDSKDSTYSLSSTLTLSKADYEKHKVYACEVTHQGLSSPVTKSFNRGEC
heavy 2: QVQLVESGGGVVQPGRSLRLSCAASGFTFSEWYFMSWVRQAPGKGLEWVASIDTGSGSIDYAEWVEGRFTISRDNSKNTLYLQMNSLRAEDTAVYYCARDIGIDYNFWGPGTLVTVSSASTKGPSVFPLAPSSKSTSGGTAALGCLVEDYFPEPVTVSWNSGALTSGVHTFPAVLESSGLYSLSSVVTVPSSSLGTKTYICNVNHKPSNTKVDKRVEPKSCDKTHTCPPCPAPELRRGPSVFLFPPKPKDTLMISRTPEVTCVVVDVSHEDPEVKFNWYVDGVEVHNAKTKPREEQYNSTYRVVSVLTVLHQDWLNGKEYKCKVSNKALPAPIEKTISKAKGQPREPQVYTLPPSRKEMTKNQVSLTCLVKGFYPSDIAVEWESNGQPENNYKTTPPYLDSDGSFFLYSKLTVDKSRWQQGNVFSCSVLHEALHAHYTRKELSLSP
light 2: DIQMTQSPSSLSASVGDRVTITCQTTQSISSYLNWYQQKPGQPPKLLIYYASTKAEGIPARFSGSGLGTDFTLTISSLEPEDFAVYYCHYGISKVSFGQGTKVEIKRTVAAPSVFIFPPSDEQLKSGTAKVVCLLNNFYPREAKVQWKVDNALQSGNSKESVTEQDSKDSTYSLSSTLTLSKADYEKHKVYACEVTHQGLSSPVTKSFNRGEC
For B1, in [1], the “IC50 (ng/mL), α1a gliadin TCR, 250 nM 33mer gliadin” value stood at 0.38 ng/mL; the “IC50 (ng/mL), α1b gliadin TCR, 250 nM 33mer gliadin” value was 1.78 ng/mL; the “IC50 (ng/mL), α2 gliadin TCR, 250 nM 33mer gliadin” value stood at 0.33 ng/mL. In experiment [2], the “IC50 (ng/mL), γ2 gliadin TCR, 250 nM γ2 gliadin” value amounted to 322 ng/mL. Also, in [3], the “IC50 (ng/mL), ω1 gliadin TCR, 25 µM ω1/2 gliadin” value came out at 2.51 ng/mL and the “IC50 (ng/mL), ω2 gliadin TCR, 250 nM ω1/2 gliadin” value is 0.2 ng/mL. For the same molecule, in [4], the “IC50 (ng/mL), γ4a gliadin TCR, 25 µM γ4a gliadin” value was found to be 1160 ng/mL. The “IC50 (ng/mL), γ4d gliadin TCR, 100 µM γ4d gliadin” value in experiment [5] is 13.1 ng/mL. In addition, in experiment [6], the “IC50 (ng/mL), γ1 gliadin TCR, 250 nM γ1 gliadin” value was determined as 1.11 ng/mL. Moreover, the “IC50 (ng/mL), BC hordein TCR, 250 nM BC hordein” value in experiment [7] is 7.54 ng/mL. For the same molecule, the “IC50 (ng/mL), γ3 gliadin TCR, 100 µM γ3 gliadin” value in experiment [8] stood at 2.63 ng/mL.

B2: DQN0344H1013/L0620//DQN0385H1353/L0681-F6 (bispecific antibody)
heavy 1: QVQLVESGGGVVQPGRSLRLSCAASGFTFSSAYWMVWVRQAPGQGLEWMGAVYGGSDTTYYAKWTEGRFTISRDTSKNTLYLQMNSLRAEDTAVYYCAREPLNYYYYGELNVWGQGTLVTVSSASTKGPSVFPLAPSSKSTSGGTAALGCLVKDYFPEPVTVSWNSGALTSGVHTFPAVLKSSGLYSLSSVVTVPSSSLGTQTYICNVNHKPSNTKVDKRVEPKSCDKTHTCPPCPAPELRRGPSVFLFPPKPKDTLMISRTPEVTCVVVDVSHEDPEVKFNWYVDGVEVHNAKTKPREEQYNSTYRVVSVLTVLHQDWLNGKEYKCKVSNKALPAPIEKTISKAKGQPREPQVYTLPPSREEMTKNQVSLTCLVKGFYPSDIAVEWESNGQPENNYKTTPPYLDSDGSFFLYSKLTVDKSRWQEGNVFSCSVLHEALHAHYTREELSLSP
light 1: DIQMTQSPSSLSASVGDRVTITCQATENIYSGLAWYQQKPGKAPKLLIYYVSTLAYGIPARFSGSGSGTDFTLTISSLEPEDFAVYYCQTYEDVSAVTFGQGTKVEIKRTVAAPSVFIFPPSDEQLKSGTAEVVCLLNNFYPREAKVQWKVDNALQSGNSEESVTEQDSKDSTYSLSSTLTLSKADYEKHKVYACEVTHQGLSSPVTKSFNRGEC
heavy 2: QVQLVESGGGVVQPGRSLRLSCAASGFTFAEWYFMSWVRQAPGKGLEWVASIDTGSGSIDYAEWVEGRFTISRDNSKNTLYLQMNSLRAEDTAVYYCARDIGIDYNFWGPGTLVTVSSASTKGPSVFPLAPSSKSTSGGTAALGCLVEDYFPEPVTVSWNSGALTSGVHTFPAVLESSGLYSLSSVVTVPSSSLGTKTYICNVNHKPSNTKVDKRVEPKSCDKTHTCPPCPAPELRRGPSVFLFPPKPKDTLMISRTPEVTCVVVDVSHEDPEVKFNWYVDGVEVHNAKTKPREEQYNSTYRVVSVLTVLHQDWLNGKEYKCKVSNKALPAPIEKTISKAKGQPREPQVYTLPPSRKEMTKNQVSLTCLVKGFYPSDIAVEWESNGQPENNYKTTPPYLDSDGSFFLYSKLTVDKSRWQQGNVFSCSVLHEALHAHYTRKELSLSP
light 2: DIQMTQSPSSLSASVGDRVTITCQTTQSISSYLNWYQQKPGQPPKLLIYYASTKAEGIPARFSGSGLGTDFTLTISSLEPEDFAVYYCHYGISKVSFGQGTKVEIKRTVAAPSVFIFPPSDEQLKSGTAKVVCLLNNFYPREAKVQWKVDNALQSGNSKESVTEQDSKDSTYSLSSTLTLSKADYEKHKVYACEVTHQGLSSPVTKSFNRGEC
On to B2, for which the binding result with HLA-DP on Ba/F3 cells is “no binding (tested: 0.05 micro g/mL)”. The binding result with HLA-DQ6.3 on Ba/F3 cells is “no binding (tested: 0.05 micro g/mL)”. The binding result with HLA-DQ5.1 on Ba/F3 cells was “no binding (tested: 0.05 micro g/mL)”. Moreover, in experiment [1], the “IC50 (ng/mL), α1a gliadin TCR, 250 nM 33mer gliadin” value turned out to be 0.29 ng/mL; the “IC50 (ng/mL), α1b gliadin TCR, 250 nM 33mer gliadin” value turned out to be 1.13 ng/mL; the “IC50 (ng/mL), α2 gliadin TCR, 250 nM 33mer gliadin” value was 0.34 ng/mL. Besides, the “IC50 (ng/mL), γ2 gliadin TCR, 250 nM γ2 gliadin” value in experiment [2] turned out to be 100 ng/mL. Besides, in experiment [3], the “IC50 (ng/mL), ω1 gliadin TCR, 25 µM ω1/2 gliadin” value came out at 1.17 ng/mL and the “IC50 (ng/mL), ω2 gliadin TCR, 250 nM ω1/2 gliadin” value was found to be 0.17 ng/mL. In addition, the “IC50 (ng/mL), γ4a gliadin TCR, 25 µM γ4a gliadin” value in experiment [4] stood at 1250 ng/mL. The “IC50 (ng/mL), γ4d gliadin TCR, 100 µM γ4d gliadin” value in [5] worked out at 2.06 ng/mL. Also, the “IC50 (ng/mL), γ1 gliadin TCR, 250 nM γ1 gliadin” value in experiment [6] was 0.56 ng/mL. Moreover, the “IC50 (ng/mL), BC hordein TCR, 250 nM BC hordein” value in [7] worked out at 8.78 ng/mL. The “IC50 (ng/mL), γ3 gliadin TCR, 100 µM γ3 gliadin” value in experiment [8] was 2.29 ng/mL.

Source of the values: patent US20240400693A1 (Chugai, published 2024).
